What was measured:
CD3 = CD3 (human); assay: CD3 binding, as described in Example 2 (ELISA or FCM)
B7H3 = biological target: T1, B7H3 (human, UniProt Q5ZPR3 29-466, limits assumed); assay: FCM or ELISA
T1 construct: Tumor associated antigen; also called huB7H3
T1 sequence (looked up): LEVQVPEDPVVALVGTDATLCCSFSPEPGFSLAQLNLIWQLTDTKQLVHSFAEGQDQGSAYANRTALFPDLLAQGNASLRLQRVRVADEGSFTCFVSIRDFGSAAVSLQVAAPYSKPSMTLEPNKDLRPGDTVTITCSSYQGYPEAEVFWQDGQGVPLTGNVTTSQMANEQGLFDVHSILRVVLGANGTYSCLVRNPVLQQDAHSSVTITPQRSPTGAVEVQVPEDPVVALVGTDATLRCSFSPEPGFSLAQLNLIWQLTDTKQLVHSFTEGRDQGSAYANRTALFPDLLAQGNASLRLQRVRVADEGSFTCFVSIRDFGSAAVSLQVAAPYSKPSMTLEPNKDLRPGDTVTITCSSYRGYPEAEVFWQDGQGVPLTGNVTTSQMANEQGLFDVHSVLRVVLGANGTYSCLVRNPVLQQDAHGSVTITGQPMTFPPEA

Sequence of CD3 (human) (chain, as listed by the source): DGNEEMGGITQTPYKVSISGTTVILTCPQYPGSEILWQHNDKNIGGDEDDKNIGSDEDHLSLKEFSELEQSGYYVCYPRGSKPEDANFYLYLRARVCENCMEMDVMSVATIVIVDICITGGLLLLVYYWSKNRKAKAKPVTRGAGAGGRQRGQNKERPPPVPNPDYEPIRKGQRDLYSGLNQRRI

Binder	EC50 (CD3)	binding result (B7H3)
Ly1965 (bispecific antibody, B7H3 Fabs, central CD3 Fv) chain 1: QVQLVQSGAEVKKPGASVKVSCKASGYTFTSYVMHWVRQKPGQGLEWIGYINPYNEGTESTDKFKGRATMTSDKSTSTVYMELSSLRSEDTAVYYCASIYYGYEGTYFGVWGQGTLVTVSSASTKGPSVFPLAPSSKSTSGGTAALGCLVKDYFPEPVTVSWNSGALTSGVHTFPAVLQSSGLYSLSSVVTVPSSSLGTQTYICNVNHKPSNTKVDKKVEPKSCGGGGSGGGGSGGGGSGGGGSEVQLVESGGGLVQPGGSLRLSCAASGFTFSTYAMNWVRQAPGKGLEWVGRIRSKYNNYATYYADSVKGRFTISRDDSKNSLYLQMNSLKTEDTAVYYCVRHGNFGNSYVSWFAYWGQGTLVTVSSGGGGSDKTHTCPPCPAPEAAGPSVFLFPPKPKDTLMISRTPEVTCVVVDVSHEDPEVKFNWYVDGVEVHNAKTKPREEQYNSTYRVVSVLTVLHQDWLNGKEYKCKVSNKALPAPIEKTISKAKGQPREPQVYTLPPSREEMTKNQVSLWCLVKGFYPSDIAVEWESNGQPENNYKTTPPVLDSDGSFFLYSKLTVDKSRWQQGNVFSCSVMHEALHNHYTQKSLSLSPG chain 2: QVQLVQSGAEVKKPGASVKVSCKASGYTFTSYVMHWVRQKPGQGLEWIGYINPYNEGTESTDKFKGRATMTSDKSTSTVYMELSSLRSEDTAVYYCASIYYGYEGTYFGVWGQGTLVTVSSASTKGPSVFPLAPSSKSTSGGTAALGCLVKDYFPEPVTVSWNSGALTSGVHTFPAVLQSSGLYSLSSVVTVPSSSLGTQTYICNVNHKPSNTKVDKKVEPKSCGGGGSGGGGSGGGGSGGGGSQAVVTQEPSLTVSPGGTVTLTCRSSTGAVTTSNYANWVQQKPGQAPRGLIGGTNKRAPWTPARFSGSLLGGKAALTITGAQAEDEADYYCALWYSNLWVFGGGTKLTVLGGGGSDKTHTCPPCPAPEAAGPSVFLFPPKPKDTLMISRTPEVTCVVVDVSHEDPEVKFNWYVDGVEVHNAKTKPREEQYNSTYRVVSVLTVLHQDWLNGKEYKCKVSNKALPAPIEKTISKAKGQPREPQVYTLPPSREEMTKNQVSLSCAVKGFYPSDIAVEWESNGQPENNYKTTPPVLDSDGSFFLVSKLTVDKSRWQQGNVFSCSVMHEALHNRFTQKSLSLSPG light: EIVLTQSPATLSLSPGERATLSCRASSSVSYMHWYQQKPGQAPRPWIYATSNLASGIPARFSGSRSGTDYTLTISSLEPEDFAVYYCQQWSSNTLTFGGGTKVEIKRTVAAPSVFIFPPSDEQLKSGTASVVCLLNNFYPREAKVQWKVDNALQSGNSQESVTEQDSKDSTYSLSSTLTLSKADYEKHKVYACEVTHQGLSSPVTKSFNRGEC	0.419 µg/mL	–
Ly2428 (bispecific antibody, B7H3/CD40: two B7H3 Fabs, central CD40 Fv (TM559)) chain 1: QVQLVQSGAEVKKPGASVKVSCKASGYTFTSYVMHWVRQKPGQGLEWIGYINPYNEGTESTDKFKGRATMTSDKSTSTVYMELSSLRSEDTAVYYCASIYYGYEGTYFGVWGQGTLVTVSSASTKGPSVFPLAPSSKSTSGGTAALGCLVKDYFPEPVTVSWNSGALTSGVHTFPAVLQSSGLYSLSSVVTVPSSSLGTQTYICNVNHKPSNTKVDKKVEPKSCGGGGSGGGGSGGGGSGGGGSEVQLVESGGGLVQPGGSLRLSCAASGFTFTNYGLHWVRQAPGKGLEWVSSISPSGGVTYYRDSVKGRFTISRDNSKNTLYLQMNSLRAEDTAVYYCAKPFLGWGGANWIAHWGQGTLVTVSSGGGGSDKTHTCPPCPAPEAAGPSVFLFPPKPKDTLMISRTPEVTCVVVDVSHEDPEVKFNWYVDGVEVHNAKTKPREEQYNSTYRVVSVLTVLHQDWLNGKEYKCKVSNKALPAPIEKTISKAKGQPREPQVYTLPPSREEMTKNQVSLWCLVKGFYPSDIAVEWESNGQPENNYKTTPPVLDSDGSFFLYSKLTVDKSRWQQGNVFSCSVMHEALHNHYTQKSLSLSPG chain 2: QVQLVQSGAEVKKPGASVKVSCKASGYTFTSYVMHWVRQKPGQGLEWIGYINPYNEGTESTDKFKGRATMTSDKSTSTVYMELSSLRSEDTAVYYCASIYYGYEGTYFGVWGQGTLVTVSSASTKGPSVFPLAPSSKSTSGGTAALGCLVKDYFPEPVTVSWNSGALTSGVHTFPAVLQSSGLYSLSSVVTVPSSSLGTQTYICNVNHKPSNTKVDKKVEPKSCGGGGSGGGGSGGGGSGGGGSDIQMTQSPSSLSASVGDRVTITCLASEDISNDLAWYQQKPGKAPKLLIYFVDRLLDGVPSRFSGSGSGTDFTLTISSLQPEDFATYYCQQSYKYPPTFGQGTKLEIKGGGGSDKTHTCPPCPAPEAAGPSVFLFPPKPKDTLMISRTPEVTCVVVDVSHEDPEVKFNWYVDGVEVHNAKTKPREEQYNSTYRVVSVLTVLHQDWLNGKEYKCKVSNKALPAPIEKTISKAKGQPREPQVYTLPPSREEMTKNQVSLSCAVKGFYPSDIAVEWESNGQPENNYKTTPPVLDSDGSFFLVSKLTVDKSRWQQGNVFSCSVMHEALHNRFTQKSLSLSPG light: EIVLTQSPATLSLSPGERATLSCRASSSVSYMHWYQQKPGQAPRPWIYATSNLASGIPARFSGSRSGTDYTLTISSLEPEDFAVYYCQQWSSNTLTFGGGTKVEIKRTVAAPSVFIFPPSDEQLKSGTASVVCLLNNFYPREAKVQWKVDNALQSGNSQESVTEQDSKDSTYSLSSTLTLSKADYEKHKVYACEVTHQGLSSPVTKSFNRGEC	–	binds
Ly2434 (bispecific antibody, human IgG1, kappa, B7H3/CD40: two B7H3 Fabs, terminal CD40 Fv (TM559)) chain 1: QVQLVQSGAEVKKPGASVKVSCKASGYTFTSYVMHWVRQKPGQGLEWIGYINPYNEGTESTDKFKGRATMTSDKSTSTVYMELSSLRSEDTAVYYCASIYYGYEGTYFGVWGQGTLVTVSSASTKGPSVFPLAPSSKSTSGGTAALGCLVKDYFPEPVTVSWNSGALTSGVHTFPAVLQSSGLYSLSSVVTVPSSSLGTQTYICNVNHKPSNTKVDKKVEPKSCDKTHTCPPCPAPEAAGPSVFLFPPKPKDTLMISRTPEVTCVVVDVSHEDPEVKFNWYVDGVEVHNAKTKPREEQYNSTYRVVSVLTVLHQDWLNGKEYKCKVSNKALPAPIEKTISKAKGQPREPQVYTLPPSREEMTKNQVSLWCLVKGFYPSDIAVEWESNGQPENNYKTTPPVLDSDGSFFLYSKLTVDKSRWQQGNVFSCSVMHEALHNHYTQKSLSLSPGGGGGSGGGGSGGGGSGGGGSEVQLVESGGGLVQPGGSLRLSCAASGFTFTNYGLHWVRQAPGKGLEWVSSISPSGGVTYYRDSVKGRFTISRDNSKNTLYLQMNSLRAEDTAVYYCAKPFLGWGGANWIAHWGQGTLVTVSS chain 2: QVQLVQSGAEVKKPGASVKVSCKASGYTFTSYVMHWVRQKPGQGLEWIGYINPYNEGTESTDKFKGRATMTSDKSTSTVYMELSSLRSEDTAVYYCASIYYGYEGTYFGVWGQGTLVTVSSASTKGPSVFPLAPSSKSTSGGTAALGCLVKDYFPEPVTVSWNSGALTSGVHTFPAVLQSSGLYSLSSVVTVPSSSLGTQTYICNVNHKPSNTKVDKKVEPKSCDKTHTCPPCPAPEAAGPSVFLFPPKPKDTLMISRTPEVTCVVVDVSHEDPEVKFNWYVDGVEVHNAKTKPREEQYNSTYRVVSVLTVLHQDWLNGKEYKCKVSNKALPAPIEKTISKAKGQPREPQVYTLPPSREEMTKNQVSLSCAVKGFYPSDIAVEWESNGQPENNYKTTPPVLDSDGSFFLVSKLTVDKSRWQQGNVFSCSVMHEALHNRFTQKSLSLSPGGGGGSGGGGSGGGGSGGGGSDIQMTQSPSSLSASVGDRVTITCLASEDISNDLAWYQQKPGKAPKLLIYFVDRLLDGVPSRFSGSGSGTDFTLTISSLQPEDFATYYCQQSYKYPPTFGQGTKLEIK light: EIVLTQSPATLSLSPGERATLSCRASSSVSYMHWYQQKPGQAPRPWIYATSNLASGIPARFSGSRSGTDYTLTISSLEPEDFAVYYCQQWSSNTLTFGGGTKVEIKRTVAAPSVFIFPPSDEQLKSGTASVVCLLNNFYPREAKVQWKVDNALQSGNSQESVTEQDSKDSTYSLSSTLTLSKADYEKHKVYACEVTHQGLSSPVTKSFNRGEC	–	binds
Ly305 (antibody, V domains shown, Parent mAb; also called Anti-CD3 Ly305; parent anti-CD3 mAb) VH: EVQLVESGGGLVQPGGSLRLSCAASGFTFSTYAMNWVRQAPGKGLEWVGRIRSKYNNYATYYADSVKGRFTISRDDSKNSLYLQMNSLKTEDTAVYYCVRHGNFGNSYVSWFAYWGQGTLVTVSS VL: QAVVTQEPSLTVSPGGTVTLTCRSSTGAVTTSNYANWVQQKPGQAPRGLIGGTNKRAPWTPARFSGSLLGGKAALTITGAQAEDEADYYCALWYSNLWVFGGGTKLTVL	0.03 µg/mL	–

From patent US20250388669A1 (published 2025)
